Laboratory results published in the nanobody polyreactivity screen of Harvey et al. (2022).

Assay: yeast display, Sf9 membrane polyspecificity reagent, FACS + sequencing; frameworks hold sequencing errors
Method in brief: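 Genes from sorted yeast were amplified by colony PCR, read by MiSeq 2 × 250 sequencing and filtered on CDR length. These cells carried a synthetic nanobody library in Saccharomyces cerevisiae BJ5465 and were sorted by FACS into low and high (top ~1%) gates on anti-HA and streptavidin fluorescence. Polyreactivity is labelled according to the gate of origin.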

Question: With “QVQLVESGGGLVQAGGSLLLSCAASGRIFYGNAMGWYRQAPGKERELVAPISSGTSTNYADSVKGRFTISRDNGKNTVYLQMNSLKPEDTAVYYCAAGSYSRYLYSLYFDFDYWGQGTQVTVSS” as the sequence, how does the “polyreactivity (PSR sort gate)” value read?
Answer: Its value is “low polyreactivity”.

Question: Which “polyreactivity (PSR sort gate)” value does the source give for “QVQLVESGGGLVQAGGSLLLSCAASGRIIGYYAMGLYRQAPVKERELVAAISRRGGSTYYADSVKGRFTISRDNAKNTVYLQINSLKPEDTAVYYCNADRVLTRPRYDYWGQGTQVTVSS” here?
Answer: Its value is “low polyreactivity”.

Question: With “QVQLVESGGGLVQAGGSLLLSCAASGRTFAPYAMGWYRQAPGKERELVAAISSGGGNTYYADSVKGRFTISRDNAKNTVYLQMNSMKPEDTAVYYCAKPRARQDFDYWGQGTKVTVSS” as the sequence, how does the “polyreactivity (PSR sort gate)” value read?
Answer: The value was “high polyreactivity”.

Question: With “QVQLVESGGGLVQAGGSLLLSCAASGRTFWPYAMGWYRQAPGKERELVAAITSDGSTTYADSVTGRFTISRDNAKNTVYLQMNSLTPEDTAVYFCAAYGYYYYQTIPMDYWGQGTQVTVSS” as the sequence, how does the “polyreactivity (PSR sort gate)” value read?
Answer: The value was “low polyreactivity”.

Question: For “QVQLVESGGGLVQAGGSLLLSCAASGSIFGWYVMGWYRQEPGKERELVAAISSVGSTYYADSVKGRFTISRDNAKNTVYLQMNSLKPEDTAVYYCATDSNPKWDYALDSWGQGTQVTVSS”, which “polyreactivity (PSR sort gate)” value is on record?
Answer: Its value is “low polyreactivity”.

Question: With “QVQLVESGGGLVQAGGSLLLSCAASGSIFYSNAMAWYRQAPGKERELVATITWSGGRTYYADSVKGRFTISRDNAKNTVYLQMNSLKPDDTAVYYCAAVSIYWGQGTQVTVSS” as the sequence, how does the “polyreactivity (PSR sort gate)” value read?
Answer: Its value is “low polyreactivity”.

Question: Which “polyreactivity (PSR sort gate)” value does the source give for “QVQLVESGGGLVQAGGSLLLSCAASGSILSKNAMGWYRQAPGKDRELVAAITWSGGSTYYADSVKGRFTISRDNAKNTVYLQMNSLKPEDTADYSCAADLDWSPQFGLPYDYWGQGTQVTVSS” here?
Answer: The value was “low polyreactivity”.

Question: Which “polyreactivity (PSR sort gate)” value does the source give for “QVQLVESGGGLVQAGGSLLLSCAASGSTFYYNAMGWYRQATGKERELVARISRSGGSTYADSVKGRFTISRDNAKNTVYLQMNSLKPEDTAVYYCNADAYGTPEFTSYAVRYDYWGQGTQVTVSS” here?
Answer: Its value is “low polyreactivity”.

Question: Which “polyreactivity (PSR sort gate)” value does the source give for “QVQLVESGGGLVQAGGSLLLSCAASGSTLDPNVMGWYRPAPGKERELVAAITSGGSTYYADSVKGRFTISRDNAKNTVYLQMNSLKPEDTAVYYCNKDKGWLAHSRIWLWYDYWGQGTQVTVSS” here?
Answer: Its value is “low polyreactivity”.

Question: For “QVQLVESGGGLVQAGGSLLLSCAASGSTSQPYAMGWYRQAPGKERELVASITNGGITYYADSVKGRFTISRDNAKNTVYLQLNSLKPEVTAVYYCNADNVFEGYDRRSARACYRYYYWGQGTQVTVSS”, which “polyreactivity (PSR sort gate)” value is on record?
Answer: The value was “low polyreactivity”.

Question: For “QVQLVESGGGLVQAGGSLLLSCAPSGSTIPSYAMGWYRQSPGKERELVASITYSDGTTRYADSVKGRFTISRDNAKNTVYLQMNSLKPEDTAVYYCNAVYYREGMDYWGQGTQVTVSS”, which “polyreactivity (PSR sort gate)” value is on record?
Answer: Its value is “low polyreactivity”.

Question: With “QVQLVESGGGLVQAGGSLLLSSAASGRTFWMYAMGWNRQAPGKESELVAGITWRGGSTYYADSVKGRFTISRDIAKNTVYLQMNSQKPEDTAVYYFAAEFWVSRSIWVYYYWGQGTQVTVSS” as the sequence, how does the “polyreactivity (PSR sort gate)” value read?
Answer: Its value is “high polyreactivity”.

Question: For “QVQLVESGGGLVQAGGSLPLSCAASGFIFGTNTMGWYRQAPGKEREMVAAITSVGSTNYADSVKGRFTISRDNAKNTVYLQMNSLKPEDTAVYYCPATLYYQYGGDYWGQGTQVTVSS”, which “polyreactivity (PSR sort gate)” value is on record?
Answer: The value was “low polyreactivity”.

Question: With “QVQLVESGGGLVQAGGSLPLSCAASGGTFRGNAMGWYRQAPGKERELVAAITGSGGSTYYADSVTGRFTISRDNAKNTVYLQMNSLKPEDSAVYYCAVDRASRRTYNQYGYWGQGTQVTVSS” as the sequence, how does the “polyreactivity (PSR sort gate)” value read?
Answer: The value was “high polyreactivity”.

Question: Which “polyreactivity (PSR sort gate)” value does the source give for “QVQLVESGGGLVQAGGSLPLSCAASGITIYGYAMGWYRQAPGKESELVAAMSTSGGRTYYADSVKGRFTISRDNAKNTVYLQMNSMKPEDTAVYYCAVAPYKGTWDSRSSWRRRAYWGQGTQVTVSS” here?
Answer: Its value is “high polyreactivity”.

Question: With “QVQLVESGGGLVQAGGSLPLSCAASGRIFKDNAMGWYRQAPGNEREMVAAISSGASTSYADSVKGRFTISRDYAKNTVYLQRNSLKPEDTAVYYCNGGGDLYYPGWLFDYWGQGTQVTVSS” as the sequence, how does the “polyreactivity (PSR sort gate)” value read?
Answer: The value was “low polyreactivity”.

Question: For “QVQLVESGGGLVQAGGSLPLSCAASGRIIDRYAMGWSRQATGKERDLVASISSGGSTYYADSVKGRFTISRDNAKNTVYLQMNSLKPEDTAVYYCNAEARSRRYRYDYWGQGTQVTVSS”, which “polyreactivity (PSR sort gate)” value is on record?
Answer: The value was “high polyreactivity”.

Question: With “QVQLVESGGGLVQAGGSLPLSCAASGRTFDVYPMGWYRQAPGKERELVAAINGGGSTYYADSVKGRFTISRDNAKNTVYLQINSLKPEDTALYYCAAKFRAGRSSYYWGQGTQVTVSS” as the sequence, how does the “polyreactivity (PSR sort gate)” value read?
Answer: The value was “high polyreactivity”.

Question: With “QVQLVESGGGLVQAGGSLPLSCAASGRTFNFYAMGWYRQAPGKERELVATISGGVSTYYADSVKGPFTISRDNAKITVYLQMNSLKPEDTAVYYCAKDSCYPQWDLDYWGQGTQVTVSS” as the sequence, how does the “polyreactivity (PSR sort gate)” value read?
Answer: Its value is “high polyreactivity”.

Question: For “QVQLVESGGGLVQAGGSLPLSCAASGRTFRRYGMGWYSNAHGKERELVAGISGYGTTNYADSVKGRFTISRDNAKNTVYLQMNSLKPEDSAVYYCAAGRPYYYTYSGLYYWGQGTQVTVSS”, which “polyreactivity (PSR sort gate)” value is on record?
Answer: The value was “high polyreactivity”.

Question: With “QVQLVESGGGLVQAGGSLPLSCAASGRTFRSNAMGWYRQAPGKERELVAAISWSGGSTYYADSVKGRFTISRDNAKTSVYFQLNSLKPEDTAVYYCAAYYYTRFEWGQGTQVTVSS” as the sequence, how does the “polyreactivity (PSR sort gate)” value read?
Answer: Its value is “high polyreactivity”.

Question: For “QVQLVESGGGLVQAGGSLPLSCAASGSIFSKYTMGWYRQAPGKERELDAAISRAGSTYYADSVKGRFTISRDNAKNSVYLQMNSLKPEDTAVYYCNARYRGVYPLIGIRRDYYYWGQGTQVTVSS”, which “polyreactivity (PSR sort gate)” value is on record?
Answer: The value was “high polyreactivity”.

Question: For “QVQLVESGGGLVQAGGSLPLSCAASGSILYFYAMGWYRQSPGKERELVAAISWTGGSTYYADSVKGRFTISRDNAKNTVYLQMNSLKPEDTAVYYCAAELWYEGYDYWGQGTQVTVSS”, which “polyreactivity (PSR sort gate)” value is on record?
Answer: The value was “high polyreactivity”.

Question: Which “polyreactivity (PSR sort gate)” value does the source give for “QVQLVESGGGLVQAGGSLPLSCAASGSIVTDNAMGWYRQAPGKERELVAANTSSGNTNYADSVKGRFTISRDNAKNTVDLQMKSLKPEDTAVYYCAADSYYTHWTDWLPVGEDYWGQVTQVTVSS” here?
Answer: Its value is “low polyreactivity”.

Question: With “QVQLVESGGGLVQAGGSLPLSSAASGITLRYYAMRWYRQAPGKERELVAAMSGRGGGTYYADSVKGRFTISRDNAKNTVYLQMNSLKPEDTAVYYCNAVGQQQVEYEYWGQGTQVTVSS” as the sequence, how does the “polyreactivity (PSR sort gate)” value read?
Answer: Its value is “high polyreactivity”.

Question: Which “polyreactivity (PSR sort gate)” value does the source give for “QVQLVESGGGLVQAGGSLRCSCAASGFTFYSYAMGWYRQAPGKERELVAAITESGGSTYYADSVKGRFTISRDNAKNTVYLQMNSLKPEDTAVYYCAAQFAQRPQYYYFVWYDYWGQGTQVTVSS” here?
Answer: The value was “low polyreactivity”.

Question: Which “polyreactivity (PSR sort gate)” value does the source give for “QVQLVESGGGLVQAGGSLRCSCSASGGIFVNYAMGWSRPAPGKETELVAAISRSGGSTYYADSVKGRFTISRDNANNTVYLQMNSLKPEDTAVYYCAKRRVYYGSRYHYWGEGTQVTVSS” here?
Answer: Its value is “high polyreactivity”.

Question: For “QVQLVESGGGLVQAGGSLRFSCAASGFTFRKNAMGWYRQAPGKERELVAAISRRGGRTYYADSVKGRFTISRDNAKNTVYLQMNSLKPEDTAVYYCNADEYGGSTGRKGRYNYWGQGTQVTVSS”, which “polyreactivity (PSR sort gate)” value is on record?
Answer: Its value is “low polyreactivity”.

Question: With “QVQLVESGGGLVQAGGSLRFSCAASGFTFVYNAMGWYRQAPGKERELVARISVSGGSTYYADSVKGRFTISRDNAKNTVYLQMNSLKPEDTAVYYCAAELSAPQPDYQQKVDYYYWGQGTQVTVSS” as the sequence, how does the “polyreactivity (PSR sort gate)” value read?
Answer: The value was “low polyreactivity”.

Question: For “QVQLVESGGGLVQAGGSLRFSCAASGFTFYLYTMGWYRQAPGKDRELVAAINYSGGTTYYADSVKGRFTISRDNAKNTVYLQMNSLKPEDTAVYYCAATVGYSYNPRKNYYWGQGTQVTVSS”, which “polyreactivity (PSR sort gate)” value is on record?
Answer: Its value is “low polyreactivity”.
